What was measured:
[1] = biological target: T1, M.EcoKI (the M2S1 methyltransferase core of the EcoKI Type I RM enzyme) (E. coli, UniProt P08957 1-529; P05719 1-464); experiment: cell-based or functional assay
T1 sequence 1: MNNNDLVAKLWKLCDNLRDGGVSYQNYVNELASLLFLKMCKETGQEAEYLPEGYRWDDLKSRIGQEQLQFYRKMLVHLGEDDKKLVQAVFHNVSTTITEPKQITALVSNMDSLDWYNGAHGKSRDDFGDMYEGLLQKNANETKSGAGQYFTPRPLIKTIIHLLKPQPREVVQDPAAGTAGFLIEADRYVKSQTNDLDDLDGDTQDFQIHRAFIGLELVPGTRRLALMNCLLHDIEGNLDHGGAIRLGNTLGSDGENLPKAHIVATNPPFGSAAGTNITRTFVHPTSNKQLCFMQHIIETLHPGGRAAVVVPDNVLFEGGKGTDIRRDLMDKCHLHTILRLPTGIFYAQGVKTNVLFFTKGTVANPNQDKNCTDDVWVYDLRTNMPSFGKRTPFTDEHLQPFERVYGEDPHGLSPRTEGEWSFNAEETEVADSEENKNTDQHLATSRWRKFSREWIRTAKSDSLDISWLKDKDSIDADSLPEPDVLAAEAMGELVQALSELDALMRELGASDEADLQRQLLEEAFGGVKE
T1 sequence 2: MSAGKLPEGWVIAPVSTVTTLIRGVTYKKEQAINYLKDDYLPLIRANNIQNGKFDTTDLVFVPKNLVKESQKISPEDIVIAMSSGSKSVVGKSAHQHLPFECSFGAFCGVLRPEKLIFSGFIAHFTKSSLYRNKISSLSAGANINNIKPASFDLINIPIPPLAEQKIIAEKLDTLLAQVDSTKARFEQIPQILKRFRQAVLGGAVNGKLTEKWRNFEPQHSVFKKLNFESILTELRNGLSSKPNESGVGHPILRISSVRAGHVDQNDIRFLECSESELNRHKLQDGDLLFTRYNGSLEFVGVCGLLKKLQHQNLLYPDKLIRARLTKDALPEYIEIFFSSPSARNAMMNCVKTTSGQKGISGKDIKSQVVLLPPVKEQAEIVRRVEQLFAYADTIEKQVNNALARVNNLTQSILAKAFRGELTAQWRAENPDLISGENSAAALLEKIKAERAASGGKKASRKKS

[2] = biological target: EcoKI Type I restriction/modification enzyme (R2M2S1) (E. coli, UniProt P08956 1-1170; P08957 1-529; P05719 1-464); experiment: cell-based or functional assay
Sequence of EcoKI Type I restriction/modification enzyme (R2M2S1) (P08956 whole entry, one chain of several): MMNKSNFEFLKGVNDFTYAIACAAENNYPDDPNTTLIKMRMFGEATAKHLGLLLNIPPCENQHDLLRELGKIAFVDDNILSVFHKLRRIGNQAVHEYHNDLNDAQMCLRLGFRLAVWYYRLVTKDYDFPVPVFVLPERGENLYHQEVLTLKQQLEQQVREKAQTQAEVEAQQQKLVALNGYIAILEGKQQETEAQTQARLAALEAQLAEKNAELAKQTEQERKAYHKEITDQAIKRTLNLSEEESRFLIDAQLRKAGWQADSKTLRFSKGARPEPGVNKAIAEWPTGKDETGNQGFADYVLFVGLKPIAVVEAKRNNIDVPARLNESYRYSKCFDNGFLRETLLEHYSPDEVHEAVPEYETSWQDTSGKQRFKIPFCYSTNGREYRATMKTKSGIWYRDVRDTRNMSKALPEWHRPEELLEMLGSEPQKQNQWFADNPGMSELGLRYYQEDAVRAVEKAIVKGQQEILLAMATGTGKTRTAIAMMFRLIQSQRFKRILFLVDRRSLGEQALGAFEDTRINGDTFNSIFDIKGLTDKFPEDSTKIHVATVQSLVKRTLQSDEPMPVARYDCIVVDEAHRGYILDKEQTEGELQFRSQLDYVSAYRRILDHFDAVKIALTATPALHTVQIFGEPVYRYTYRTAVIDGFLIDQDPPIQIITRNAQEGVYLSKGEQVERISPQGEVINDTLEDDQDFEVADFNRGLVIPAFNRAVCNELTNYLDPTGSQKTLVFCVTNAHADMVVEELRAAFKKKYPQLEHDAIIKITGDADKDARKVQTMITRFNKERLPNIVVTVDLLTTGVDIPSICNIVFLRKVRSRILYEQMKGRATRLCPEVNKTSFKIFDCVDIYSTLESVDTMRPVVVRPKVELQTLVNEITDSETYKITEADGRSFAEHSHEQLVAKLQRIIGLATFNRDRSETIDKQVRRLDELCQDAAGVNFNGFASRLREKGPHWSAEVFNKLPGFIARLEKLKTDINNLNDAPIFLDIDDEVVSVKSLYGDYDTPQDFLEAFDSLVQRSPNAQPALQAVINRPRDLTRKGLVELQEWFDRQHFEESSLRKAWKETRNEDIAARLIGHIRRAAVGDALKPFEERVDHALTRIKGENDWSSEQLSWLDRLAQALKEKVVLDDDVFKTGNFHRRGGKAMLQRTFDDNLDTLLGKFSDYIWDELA

[3] = biological target: T1, M.EcoKI (the M2S1 methyltransferase …); experiment: ITC; as described in ref. 15 but in 20 mM HEPES buffer, pH 7.0; heat of interaction plotted against the molar ratio of Ocr dimer to M.EcoKI; settings: both partners purified

B1: Ocr (overcome classical restriction) from bacteriophage T7, wild type (natural protein, UniProt P03775 1-117, looked up)
chain: MAMSNMTYNNVFDHAYEMLKENIRYDDIRDTDDLHDAIHMAADNAVPHYYADIFSVMASEGIDLEFEDSGLMPDTKDVIRILQARIYEQLTIDLWEDAEDLLNEYLEEVEEYEEDEE
notes: Ocr, product of bacteriophage T7 gene 0.3; homodimer of a polypeptide of 116 amino acids (34 acidic and 6 basic residues per monomer); also called wild-type Ocr; gene 0.3 protein
in vivo antimodification: efficiency of plating on E. coli NM1041 (r+m+) relative to NM1057 (r-m+) of phage lambda v.o recovered from NM1057 expressing Ocr (vector alone 1) [1]: 0.00014 eop | in vivo antirestriction: efficiency of plating of phage lambda v.o on E. coli NM1049(DE3) (r+m+, EcoKI) relative to NM1261(DE3) (r-m-), strains expressing Ocr (vector alone 5x10^-5) [2]: 4 eop | stoichiometry N [3]: 1 Ocr dimer per M.EcoKI

Source: paper PMC4872106, “The evolutionary pathway from a biologically inactive polypeptide sequence to a folded, active structural mimic of DNA” (Nucleic Acids Research, 2016)
